Test [1] deals with T1, cyclo(CGHHQKG) cyclic peptide, conjugated to BSA (also: conjugated to BSA, site not given here).
T1 construct: BSA is the carrier used for screening; also called cyclopeptide; Cyclo-BSA
T1 peptide: cyclo(CGHHQKG)
The test can be described thus: single cycle Biacore analysis.

Test [2] addresses T2, commercially-prepared stable A-beta42 Oligomers (SynAging) (human).
T2 construct: Bought oligomer preparation; also called AbO; SynAging AbO
The test can be described thus: ProteOn biosensor; antibody captured with anti-mouse IgG or amine-coupled, AbO dilutions injected.

Test [3] has as its target T1, cyclo(CGHHQKG) cyclic peptide, …. Nature of the test: ProteOn biosensor; antibody amine-coupled to GLH chip, cyclo-BSA 9 nM to 111 pM.
Test [4] has the same target. The test can be described thus: SPR; immobilized antibody pre-exposed to the cyclic peptide. Background: Surface plasmon resonance follows binding to a sensor surface in real time, without labels.

T2 sequence (peptide, as listed by the source): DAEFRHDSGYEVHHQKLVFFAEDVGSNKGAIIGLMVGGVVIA

B1: Chimeric 301-17 antibody (VH0 Vk0), mouse variable regions on human IgG4 / kappa (antibody)
heavy: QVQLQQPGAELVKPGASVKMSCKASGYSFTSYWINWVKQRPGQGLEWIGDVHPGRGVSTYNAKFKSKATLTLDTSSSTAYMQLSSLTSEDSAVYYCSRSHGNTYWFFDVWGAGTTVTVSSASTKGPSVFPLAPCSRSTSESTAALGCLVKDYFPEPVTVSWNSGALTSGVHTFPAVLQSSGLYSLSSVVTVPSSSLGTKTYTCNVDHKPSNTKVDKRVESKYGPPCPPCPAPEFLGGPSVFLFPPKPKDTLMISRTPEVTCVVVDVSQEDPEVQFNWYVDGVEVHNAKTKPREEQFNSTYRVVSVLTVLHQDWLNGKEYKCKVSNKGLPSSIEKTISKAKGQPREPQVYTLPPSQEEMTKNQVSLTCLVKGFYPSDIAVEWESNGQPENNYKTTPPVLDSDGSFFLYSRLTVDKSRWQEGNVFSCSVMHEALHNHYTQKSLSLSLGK
light: DVLMTQTPLSLPVSLGDQASISCRSSQSIVHSNGNTYLEWYLQKPGQSPKLLIYKVSNRFSGVPDRFSGSGSGTDFTLKISRVEAEDLGVYYCFQGSHVPFTFGSGTKLEIKRTVAAPSVFIFPPSDEQLKSGTASVVCLLNNFYPREAKVQWKVDNALQSGNSQESVTEQDSKDSTYSLSSTLTLSKADYEKHKVYACEVTHQGLSSPVTKSFNRGEC
notes: also called V0H0 and V0k0
In general, Kd refers to the concentration at which binding is half-saturated. In turn, B1 gave a Kd in test [1] of around 20 pM.

B2: 301-17 mouse monoclonal antibody, hybridoma-purified IgG3 (antibody, V domains shown)
VH: QVQLQQPGAELVKPGASVKMSCKASGYSFTSYWINWVKQRPGQGLEWIGDVHPGRGVSTYNAKFKSKATLTLDTSSSTAYMQLSSLTSEDSAVYYCSRSHGNTYWFFDVWGAGTTVTVSSATTTAPS
VL: DVLMTQTPLSLPVSLGDQASISCRSSQSIVHSNGNTYLEWYLQKPGQSPKLLIYKVSNRFSGVPDRFSGSGSGTDFTLKISRVEAEDLGVYYCFQGSHVPFTFGSGTKLEIKRADA
notes: mouse IgG3 / kappa; also called mu301-17
As for B2, the Kd in test [1] was 400 pM; in test [2], 26900 pM.

B3: Recombinant 301-17 IgG2a (murine IgG2a backbone) (antibody)
heavy: QVQLQQPGAELVKPGASVKMSCKASGYSFTSYWINWVKQRPGQGLEWIGDVHPGRGVSTYNAKFKSKATLTLDTSSSTAYMQLSSLTSEDSAVYYCSRSHGNTYWFFDVWGAGTTVTVSSAKTTAPSVYPLAPVCGDTTGSSVTLGCLVKGYFPEPVTLTWNSGSLSSGVHTFPAVLQSDLYTLSSSVTVTSSTWPSQSITCNVAHPASSTKVDKKIEPRGPTIKPCPPCKCPAPNLLGGPSVFIFPPKIKDVLMISLSPIVTCVVVDVSEDDPDVQISWFVNNVEVHTAQTQTHREDYNSTLRVVSALPIQHQDWMSGKEFKCKVNNKDLPAPIERTISKPKGSVRAPQVYVLPPPEEEMTKKQVTLTCMVTDFMPEDIYVEWTNNGKTELNYKNTEPVLDSDGSYFMYSKLRVEKKNWVERNSYSCSVVHEGLHNHHTTKSFSRTPGK
light: DVLMTQTPLSLPVSLGDQASISCRSSQSIVHSNGNTYLEWYLQKPGQSPKLLIYKVSNRFSGVPDRFSGSGSGTDFTLKISRVEAEDLGVYYCFQGSHVPFTFGSGTKLEIKRADAAPTVSIFPPSSEQLTSGGASVVCFLNNFYPKDINVKWKIDGSERQNGVLNSWTDQDSKDSTYSMSSTLTLTKDEYERHNSYTCEATHKTSTSPIVKSFNRNEC
With B3, the figures for the Kd in test [3] and in test [2] were around 17 pM and 16200 to 19500 pM, respectively.

B4: Humanized antibody of 301-17 (VH2 Vk5), human IgG4 (S241P hinge variant) / kappa (antibody, V domains shown)
VH: QVQLVQSGAEVKKPGASVKMSCKASGYSFTSYWINWVKQRPGQGLEWIGDVHPGRGVSTYNAKFKSRATLTLDTSISTAYMELSSLRSEDTAVYYCSRSHGNTYWFFDVWGQGTTVTVSS
VL: DVLMTQSPLSLPVTLGQPASISCRSSQSIVHSNGNTYLEWYQQRPGQSPRLLIYKVSNRFSGVPDRFSGSGSGTDFTLKISRVEAEDVGVYYCFQGSHVPFTFGQGTKLEIKR
notes: also called hu301-17
Consider B4, for which the binding result in test [4] was “binds”.
